# From the supplement of paper PMC11865577
# System: TO-N3-2 (biotin conjugate)
# Experiment: pull-down binding Z-score (relative to library population); higher = stronger binding
# Settings: RNA library: Library-2
# Outline: (§1)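 Biotin-conjugated small molecule (100 pmol) on streptavidin beads was incubated with 1 μg of heat-folded Cy5- or Cy3-end-labelled RNA library in phosphate/NaCl/KCl buffer at 25 °C for 60 min. Following three washes, RNA was eluted with hot SDS and hybridised at 55.5 °C for 20 h to a DNA barcode microarray. The binding value is a Z-score computed from the library mean and standard deviation, after subtraction of beads without compound and averaging of barcoded replicate probes with the highest and lowest excluded.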
row,Sequence,pull-down binding Z-score
1,GCUGAGCCCUUUGAUAAGGGGGAGGUU [hsa-mir-8080],0.545
2,GCUGAGGUUGCGUUGACGCUCGC [hsa-mir-1292],1.17
3,GCUGCACUGUCUCCGUCUGCGG [hsa-mir-4519],1.43
4,GCUGCAGAUCUUUGUCUAAGCAGC [hsa-mir-4498],-0.274
5,GCUGCAGGCAAAGCUGGGG [hsa-mir-711],1.07
6,GCUGCCAGGAAAUCCCUAUUUCAUAUAAGAGGGGGCUGGCUGGUUGC [hsa-mir-448],0.355
7,GCUGCCAUCUCCCACUGGCUGC [hsa-mir-4736],0.0852
8,GCUGCCCCUUUGCUCUCUGGGGUAGC [hsa-mir-3614],-0.388
9,GCUGCUGCCCCAGAGGCCCAGCAGGUGUCCAGAAC [hsa-mir-6750],1.93
10,GCUGCUGGUGCUCAUCUCAGC [hsa-mir-6877],0.602
11,GCUGCUUGCACUCGUUCAGC [hsa-mir-3661],0.863
12,GCUGGAGUAAGGGCACGCCCGGGGCUGC [hsa-mir-4758],1.79
13,GCUGGAUUUCCCAGCUUGACUCUAAC [hsa-mir-200a],-0.215
14,GCUGGGCUGAGCUAACCAGGGCUGGGCUGAGC [hsa-mir-4537],1.42
15,GCUGGGGACUGGAGAA [hsa-mir-4489],1.64
16,GCUGGGGCGCGGGCUUUCGCUUUCAGUCGAGGGCUAGCGAGCGCAGC [hsa-mir-7846],1.12
17,GCUGGGGGUAAAUGACUUGCACAUGAACACAAC [hsa-mir-708],0.578
18,GCUGGUCGCGGGUUGUGGGGUUUAGGUCACCGGC [hsa-mir-5091],2.87
19,GCUGGUGACAUUGCUAAUUCAUUUCACACCAGC [hsa-mir-4293],-0.912
20,GCUGUGUUGAAUGAUUGGUGAGUUUGUUUGCUCAUUGAUUGAAUCACUGC [hsa-mir-3678],-0.307
21,GCUGUUGGUCGGGUUGUGACAUUGCCCGCUGUGGAGAUAACUGC [hsa-let-7i],1.01
22,GCUUAUACGUGCCCUUGCU [hsa-mir-8075],0.504
23,GCUUAUGGGGAUAUUGUGGUUGAUCUGUUCUAUCCAGAUGAC [hsa-mir-1261],0.626
24,GCUUAUGUCAUGACCUUGGGCUACUCAGGCUGUCUGCACAAUGAGC [hsa-mir-575],1.66
25,GCUUAUUGAUGUAGCCAACAAGC [hsa-mir-3148],-0.384
26,GCUUCCGCUCUGCAGAGGC [hsa-mir-6822],-0.438
27,GCUUCUCUUUCUCACCAGCAGC [hsa-mir-4467],-0.0165
28,GCUUCUGCGUUAUCUGGAAGG [hsa-mir-4706],0.26

# System: G-clamp-N3 (biotin conjugate)
# Experiment: as above
# Settings: RNA library: Library-1 (pre-miRNA loops + repeats)
# Outline: as §1
row,Sequence,pull-down binding Z-score
1,GCCUCUUCUCCAUGAGAGGC [hsa-mir-885],1.74
2,GCCUGCCCUGAGUCCCCCAGCAGGU [hsa-mir-3907],-0.55
3,GCCUGCGGGCAGGAAGCGGA [hsa-mir-3928],-0.0318
4,GCCUGUGUAGACGGGGACCUGCCCUGCAUGGGCACCCCCUCACUGGC [hsa-mir-6762],-0.617
5,GCCUUGUGGCAUGGAGUUCAAGC [hsa-mir-107],0.5
6,GCCUUGUUGCAUAUGGAUCAAGC [hsa-mir-103a-1],0.266
7,GCCUUUCAACAUAAUGGC [hsa-mir-548w],1.21
8,GCGCGGGAAAGUUCGGGAACGCGCG [hsa-mir-4479],0.488
9,GCGGCCGCGCUGGCCGCU [hsa-mir-3665],1.02
10,GCGGCUGUUAAUGAUUUUAACAGUUGC [hsa-mir-449c],0.888
11,GCGGGAGCCAGGCCGC [hsa-mir-3185],3.26
12,GCGGGGAACGAGGCCGUCGGCCAUUUUGUG [hsa-mir-632],1.04
13,GCGGGGGUGGGGGCCUCGCCCUGCUUGGGCCCUCCCUGAC [hsa-mir-6821],0.419
14,GCGGGGUGUGGUGGGGCUGGGGCUGGCCCCCUCCUCACACCUC [hsa-mir-6800],1.21
15,GCGGUUUUUGCCAUUACUUUUCAUUUUUACCAUUAAAAGUAAUGGCAAAAAGCAU [hsa-mir-548q],-0.112
16,GCGGUUUUUGCUAUUGGUUUUAAUGGC [hsa-mir-548au],-0.139
17,GCGUCACGUGCACCCAAGUGACGC [hsa-mir-6786],-0.196
18,GCGUCGCUUCUCCCUAAUGUUGCC [hsa-mir-6781],-0.106
19,GCUAACUGUGACCUUAGC [hsa-mir-4729],-0.373
20,GCUACUGUCUGCACCUGUCACUAGCAGU [hsa-mir-130a],-1.49
21,GCUAGUGCUGGCUCAAUGCAAUGC [hsa-mir-502],-0.151

row,Sequence,pull-down binding Z-score
1,GCUCAAGCCACAGCAGGGUGUUUAGCGCUCUUCAGUGGCUCCAG [hsa-mir-1203],-1.23
2,GCUCCCAACCAACCACUUCCACAUGUUUUGCUGGU [hsa-mir-4451],-1.34
3,GCUCUAAUAAUUUAUUCUAAUAAUAAUUUAGAUC [hsa-mir-7976],-0.269
4,GCUCUGGGGAUUUGGUCUCACAGC [hsa-mir-3940],0.507
5,GCUGAAACACAGUUGGUUUGUGUACACUGGC [hsa-mir-24-2],0.212
6,GCUGAACCCCUGCCCCUGGAGCCCCCAGCAGGGCCCUC [hsa-mir-7162],-1.32
7,GCUGAGCCCUUUGAUAAGGGGGAGGUU [hsa-mir-8080],-0.454
8,GCUGAGGUUGCGUUGACGCUCGC [hsa-mir-1292],0.447
9,GCUGCACUGUCUCCGUCUGCGG [hsa-mir-4519],-0.081
10,GCUGCAGAUCUUUGUCUAAGCAGC [hsa-mir-4498],-0.879
11,GCUGCAGGCAAAGCUGGGG [hsa-mir-711],-0.426
12,GCUGCCAGGAAAUCCCUAUUUCAUAUAAGAGGGGGCUGGCUGGUUGC [hsa-mir-448],1.08
13,GCUGCCAUCUCCCACUGGCUGC [hsa-mir-4736],-0.492
14,GCUGCCCCUUUGCUCUCUGGGGUAGC [hsa-mir-3614],0.721
15,GCUGCUGCCCCAGAGGCCCAGCAGGUGUCCAGAAC [hsa-mir-6750],-0.884
16,GCUGCUGGUGCUCAUCUCAGC [hsa-mir-6877],-0.152
17,GCUGCUUGCACUCGUUCAGC [hsa-mir-3661],0.0999
18,GCUGGAGUAAGGGCACGCCCGGGGCUGC [hsa-mir-4758],1.11
19,GCUGGAUUUCCCAGCUUGACUCUAAC [hsa-mir-200a],-0.177
20,GCUGGGCUGAGCUAACCAGGGCUGGGCUGAGC [hsa-mir-4537],0.991
